Patent US20200277373A1, “ANTI-TREM2 ANTIBODIES AND METHODS OF USE THEREOF” (Denali Therapeutics Inc., priority 2017, published 2020)

T1: hTREM2 (Homo sapiens, UniProt Q9NZC2)
T1 construct: The ecto domain (residues 19-172) of TREM2 (UniProtKB—Q9NZC2); secretion signal of mouse Ig kappa chain V-III (P01661 aa 1-20) (N); made in house; host or cells: Expi293F
T1 sequence (Q9NZC2 19-172): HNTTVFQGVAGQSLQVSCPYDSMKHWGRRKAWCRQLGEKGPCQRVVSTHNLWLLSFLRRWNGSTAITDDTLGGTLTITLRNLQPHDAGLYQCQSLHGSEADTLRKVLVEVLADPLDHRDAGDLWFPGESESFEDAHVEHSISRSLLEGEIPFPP

T2: TREM2 (Homo sapiens, UniProt Q9NZC2)
T2 construct: macrophage cells that endogenously express TREM2; endogenous in cells; host or cells: primary human monocyte-derived macrophages from donor blood
T2 sequence (Q9NZC2 19-230): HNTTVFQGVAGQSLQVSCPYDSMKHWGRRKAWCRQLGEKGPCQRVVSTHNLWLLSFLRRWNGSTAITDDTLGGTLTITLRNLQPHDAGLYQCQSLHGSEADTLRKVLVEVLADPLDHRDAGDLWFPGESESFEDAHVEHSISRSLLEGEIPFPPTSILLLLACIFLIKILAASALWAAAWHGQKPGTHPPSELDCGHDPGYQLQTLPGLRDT


Key:
soluble TREM2 (sTREM2) = target: T3, soluble TREM2 (sTREM2) (Homo sapiens, UniProt Q9NZC2); assay: Soluble TREM2 (TREM2 shedding) assay in HEK293 TREM2/DAP12 cells; assay type: cell-based; parameters: key to STREM2: NC = no change; −− = reduced sTREM2; ++ = increased sTREM2; settings: change in sTREM2 levels
T3 construct: expressed in transfected cells
Protocol: HEK293 cells stably expressing human TREM2 and DAP12 were plated onto 96-well plates pre-coated with poly-D-lysine 4-16 hours prior to antibody treatment. Antibody supernatants or control antibodies were diluted into fresh complete media and added onto cells in triplicate. Cells were incubated with antibody containing media for 18 hours prior to removal of the cell supernatant for assay by TREM2 ELISA. Samples and standards were diluted 1:10 into blocking buffer (3% BSA/TBST) in the assay plate. Briefly, MSD small spot streptavidin plates were coated with biotinylated anti-hTREM2 polyclonal antibody (R&D Systems) overnight at 4° C. or 1 hour at room temperature. Plates were then blocked overnight at 4° C., or 1 hour at room temperature, with blocking buffer, 3% BSA/TBST. Plates were washed three times with TBST in a Biotek plate washer (used for all washes) prior to addition of diluent (blocking buffer) and denatured supernatants from cell culture. A TREM2-His protein diluted in 3% BSA/TBST was used as a standard for absolute quantification. Following 1 hour incubation at room temperature, plates were washed with TBST. The primary detection antibody, sulfo-tagged goat anti-human TREM2 (R&D Systems), diluted in 3% BSA/TBST was added and incubated for 1 hour at room temperature. After washing with TBST, MSD plates were developed using 2×MSD read buffer T, followed by detection using an MSD Sector plate reader. MSD values were converted to absolute quantities of sTREM2 by fitting a standard curve using Prism 7.0 software (Graphpad). Modulation of TREM2 shedding was represented as a ratio to cells cultured with no specific TREM2 antibody in the media.

hTREM2 [1] = target: T1, hTREM2; assay: Octet binning (competition with R&D antibody on biotinylated TREM2-His); assay type: binding; settings: epitope bin, 100 nM
Protocol: Competition with R&D antibody was done by Octet Red using biotinylated human Trem2-His protein generated in house. Biotinylated human TREM2-His protein was captured on a streptavidin tip, and the tip was then incubated in either 100 nM of R&D Ab or buffer for 3 minutes, followed by incubation for 3 minutes in 100 nM of testing hybridoma. The difference of hybridoma binding curve with or without pre-binding to R&D antibody was analyzed to determine the epitope.

TREM2 = target: T2, TREM2; assay: TREM2 PAM/pSyk assay on human macrophages; assay type: cell-based; settings: for effect on lipid ligand activation of TREM2 (in words): FIG. 9B, human macrophages; for Slope + Liposome: pSyk, 10 nM antibody with 0, EC20, EC50, EC80 PS/PC liposomes, liposome-alone signal subtracted
Protocol: Human macrophages were differentiated from donor blood using a human monocyte enrichment cocktail (Stem Cell Technologies) and culturing monocytes with human mCSF for five days in macrophage media (RPMI+10% Hyclone FBS+Glutamax+Pen/Strep+non-essential amino acids+sodium pyruvate). On the fifth day, the human macrophages were scraped from the flasks and were re-plated at 100,000 cells/well on a 96-well poly-D-lysine-coated plate in the macrophage media (without mCSF). The cells were incubated for 24 hours to adhere, then the media was removed.
Antibodies pre-mixed with lipid vesicles comprised of 70% DOPC and 30% POPS (made according to the procedure for making vesicles described above) diluted in HBSS were immediately added to the cells, and allowed to incubate for 5 minutes at 37° C. The liposome/antibody solution was removed, and 35 μL lysis buffer (Cell Signaling Technologies, CST) was added using the liquid handler. The lysate was then incubated at 4° C. for 30 minutes, then either frozen at −80° C. or immediately carried forward to a pSyk AlphaLISA assay as described above. […] The results of the assay are shown in FIG. 9B and in Table 8 below.

hTREM2 [2] = target: T1, hTREM2; assay: Biacore T200 binding kinetics to hTREM2; settings: analyte hTREM2
Protocol: The binding of the TREM2/TfR-binding protein RS9.F6/3C35.21.17 to TREM2 and TfR was measured using SPR on a Biacore T200 instrument. To measure TfR binding, anti-human-Fab was immobilized on a CM5 chip, and the TREM2/TfR-binding protein was captured. Full-length human TfR or human TfR apical domain at serial dilution (e.g., concentrations of 1-1000 nM) was flowed over the chip (180 second association time) and then allowed to dissociate. Fitting was performed using a 1:1 binding model. To measure TREM2 binding, anti-human-Fc antibody was immobilized on a CM5 chip, and the TREM2/TfR-binding protein was captured. A range of concentrations of recombinant TREM2-His protein were flowed over the chip, and allowed to associate and dissociate. The resulting sensograms were fitted using a 1:1 Langmuir model to estimate kon and koff (FIG. 10).
The affinities of RS9.F6/3C35.21.17 for human TREM2 and TfR were determined by surface plasmon resonance using a Biacore™ T200. Biacore Series S CM5 sensor chips were immobilized with a mixture of two monoclonal mouse anti-Fab antibodies (Human Fab capture kit from GE Healthcare). Serial 3-fold dilutions of each antigen were injected at a flow rate of 30 μL/min. The binding of the antigens to captured antibody was monitored for 30 to 180 seconds and then their dissociation was monitored for 30-300 seconds in HBS-EP+running buffer (GE, # BR100669). Binding response was corrected by subtracting the RU from a blank flow cell. A 1:1 Languir model of simultaneous fitting of kon and koff was used for kinetics analysis.

T3 sequence (O43914 22-113 partner, one chain of several): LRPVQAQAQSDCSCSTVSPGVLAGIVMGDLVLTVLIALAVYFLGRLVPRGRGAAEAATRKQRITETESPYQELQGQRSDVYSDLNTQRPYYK

Row | STREM2 (soluble TREM2 (sTREM2)) | Bin by Octet (hTREM2 [1]) | effect on lipid ligand activation of TREM2 (in words) (TREM2) | Slope + Liposome (TREM2) | ka (hTREM2 [2]) | kd (hTREM2 [2]) | Molecule
1 | NC | 3 | at least an additive effect | 94 | 480000 M⁻¹ s⁻¹ | 0.019 s⁻¹ | 3D3.A1: anti-TREM2 antibody clone; VH SEQ ID NO:18, VL SEQ ID NO:29 (antibody, V domains shown) VH: EVQLQQSGPELVKPGASVKISCKTSGYTLSEYTMHWVIQSHGKSLEWIGGVIPNSGGTSYNQKFRDKASLTVDKSSSTAYLELRSLTSEDSAVYYCARGDDSYRRGYALDYWGQGTSVTVSS VL: DIVMSQSPSSLAVSVGEKVTMSCKSSQSLLYSSNQKSYLAWYQQKPGQSPKLLIYWASTRESGVPDRFRGSGSGTDFTLTISSVKAEDLAVYYCQQYFSYPPTFGGGTKLEIK
2 | NC |  | at least an additive effect | 878 | 150000 M⁻¹ s⁻¹ | 0.00034 s⁻¹ | RS9.F6: anti-TREM2 antibody clone; VH SEQ ID NO:24, VL SEQ ID NO:35 (antibody, V domains shown) VH: QVQLQQPGAELVKPGASVKLSCKASGYTFTSYWMHWVKQSPGRGLEWIGRSDPTTGGTNYNEKFKTKATLTVDKPSSTAYMQLSSLTSDDSAVYYCVRTSGTGDYWGQGTSLTVSS VL: DVVMTQTPLSLPVSLGDQASISCRSSQSLVHNNGNTFLHWYLQKPGQSPKLLIYKVSNRFSGVPDRFSGSGSGTDFTLKISRVEAEDLGVYFCSQTTHVPPTFGGGTKLEIK
3 | NC | 1-2 |  |  |  |  | 21D11: anti-TREM2 antibody clone; VH SEQ ID NO:14, VL SEQ ID NO:25 (antibody, V domains shown) VH: QVQLQQSGAELARPGASVKLSCKASGYTFTSYWIQWVKQRPGQGLEWIGTIYPGDGDARYTQKFKGKATLTADKSSSTTYMQLNSLASEDSAVYYCARNGITTAGYYAMDYWGQGTSVTVSS VL: DIQMTQSPASLSVSVGETVTITCRASENIYSNLAWYQQKQGRSPQLLVYAATNLADGVPSRFSGSGSGTQYSLKINSLQSEDFGYYYCQHFWGTPYTFGGGTKVEIK
